This note sets out measurements from publication PMC9352680, “A comprehensive thermodynamic model for RNA binding by the Saccharomyces cerevisiae Pumilio protein PUF4”.

The chains are these.
T1: PUF4 RNA-binding domain (Saccharomyces cerevisiae, UniProt P25339 537-888)
T1 sequence: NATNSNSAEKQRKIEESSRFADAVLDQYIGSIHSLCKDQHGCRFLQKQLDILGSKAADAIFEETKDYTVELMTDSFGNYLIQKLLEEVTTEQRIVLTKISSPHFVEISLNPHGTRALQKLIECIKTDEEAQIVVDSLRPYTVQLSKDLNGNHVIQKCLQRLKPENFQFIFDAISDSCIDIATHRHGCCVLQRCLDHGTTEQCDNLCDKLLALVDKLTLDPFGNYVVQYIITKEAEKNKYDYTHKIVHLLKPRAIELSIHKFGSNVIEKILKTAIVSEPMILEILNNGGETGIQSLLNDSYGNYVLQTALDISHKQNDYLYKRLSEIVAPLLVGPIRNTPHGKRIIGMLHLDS

B1: Ic_S2_P4E.1_K4.1_C4.1_H4.1_A4.1_[T5G]_[A6T]_[T7A]_F4.1_[T8G]_[A9T]_T4.1 (ssRNA)
RNA: UUUGAUUAAUAUGAUAUCGUUCUUUCUUGUAGUAGUUUCUUUCUCGAUAUCAUAUUAAUCUUU
B2: Ic_S2_P4E.1_K4.1_C4.1_H4.1_A4.1_[T5C]_[A6G]_[T7G]_F4.1_[A9T]_T4.1 (ssRNA)
RNA: UUUGAUUAAUAUGAUAUCGUUCUUUCUUGUACGGUUUUCUUUCUCGAUAUCAUAUUAAUCUUU
B3: Ic_S2_P4E.1_K4.1_C4.1_H4.1_A4.1_[T5C]_[A6C]_[T7C]_F4.1_[A9G]_T4.1 (ssRNA)
RNA: UUUGAUUAAUAUGAUAUCGUUCUUUCUUGUACCCUGUUCUUUCUCGAUAUCAUAUUAAUCUUU
B4: Ic_S2_P4E.1_K4.1_C4.1_H4.1_A4.1_[T5C]_[A6G]_[T7C]_F4.1_[T8G]_[A9C]_T4.1 (ssRNA)
RNA: UUUGAUUAAUAUGAUAUCGUUCUUUCUUGUACGCGCUUCUUUCUCGAUAUCAUAUUAAUCUUU
B5: Ic_S2_P4E.1_K4.1_C4.1_H4.1_A4.1_[T5C]_[A6G]_[T7C]_F4.1_[T8C]_[A9G]_T4.1 (ssRNA)
RNA: UUUGAUUAAUAUGAUAUCGUUCUUUCUUGUACGCCGUUCUUUCUCGAUAUCAUAUUAAUCUUU
B6: Ic_S2_P4E.1_K4.1_C4.1_H4.1_A4.1_[T5C]_[A6C]_[T7A]_F4.1_[T8C]_T4.1 (ssRNA)
RNA: UUUGAUUAAUAUGAUAUCGUUCUUUCUUGUACCACAUUCUUUCUCGAUAUCAUAUUAAUCUUU
B7: Ic_S2_P4E.1_K4.1_C4.1_H4.1_A4.1_[T5C]_[A6G]_[T7C]_F4.1_[A9C]_T4.1 (ssRNA)
RNA: UUUGAUUAAUAUGAUAUCGUUCUUUCUUGUACGCUCUUCUUUCUCGAUAUCAUAUUAAUCUUU
B8: Ic_S2_P4E.1_K4.1_C4.1_H4.1_A4.1_[T5C]_[A6C]_[T7G]_F4.1_[T8C]_[A9C]_T4.1 (ssRNA)
RNA: UUUGAUUAAUAUGAUAUCGUUCUUUCUUGUACCGCCUUCUUUCUCGAUAUCAUAUUAAUCUUU
B9: Ic_S2_P4E.1_K4.1_C4.1_H4.1_A4.1_[T5C]_[A6C]_[T7C]_F4.1_[A9C]_T4.1 (ssRNA)
RNA: UUUGAUUAAUAUGAUAUCGUUCUUUCUUGUACCCUCUUCUUUCUCGAUAUCAUAUUAAUCUUU
B10: Ic_S2_P4E.1_K4.1_C4.1_H4.1_A4.1_[T5C]_[A6C]_[T7G]_F4.1_[T8A]_[A9C]_T4.1 (ssRNA)
RNA: UUUGAUUAAUAUGAUAUCGUUCUUUCUUGUACCGACUUCUUUCUCGAUAUCAUAUUAAUCUUU
B11: Ic_S2_P4E.1_K4.1_C4.1_H4.1_A4.1_[T5G]_[A6T]_F4.1_[T8G]_[A9C]_T4.1 (ssRNA)
RNA: UUUGAUUAAUAUGAUAUCGUUCUUUCUUGUAGUUGCUUCUUUCUCGAUAUCAUAUUAAUCUUU
B12: Ic_S2_P4E.1_K4.1_C4.1_H4.1_A4.1_[T5C]_[A6G]_F4.1_[A9T]_T4.1 (ssRNA)
RNA: UUUGAUUAAUAUGAUAUCGUUCUUUCUUGUACGUUUUUCUUUCUCGAUAUCAUAUUAAUCUUU
B13: Ic_S2_P4E.1_K4.1_C4.1_H4.1_A4.1_[T5C]_[A6G]_[T7G]_F4.1_[T8C]_[A9C]_T4.1 (ssRNA)
RNA: UUUGAUUAAUAUGAUAUCGUUCUUUCUUGUACGGCCUUCUUUCUCGAUAUCAUAUUAAUCUUU
B14: Ic_S2_P4E.1_K4.1_C4.1_H4.1_A4.1_[T5C]_[A6G]_[T7A]_F4.1_[T8C]_T4.1 (ssRNA)
RNA: UUUGAUUAAUAUGAUAUCGUUCUUUCUUGUACGACAUUCUUUCUCGAUAUCAUAUUAAUCUUU
B15: Ic_S2_P4E.1_K4.1_C4.1_H4.1_A4.1_[T5C]_[A6G]_[T7C]_F4.1_[T8C]_[A9T]_T4.1 (ssRNA)
RNA: UUUGAUUAAUAUGAUAUCGUUCUUUCUUGUACGCCUUUCUUUCUCGAUAUCAUAUUAAUCUUU
B16: Ic_S2_P4E.1_K4.1_C4.1_H4.1_A4.1_[T5C]_[A6G]_[T7C]_F4.1_[A9G]_T4.1 (ssRNA)
RNA: UUUGAUUAAUAUGAUAUCGUUCUUUCUUGUACGCUGUUCUUUCUCGAUAUCAUAUUAAUCUUU
B17: Ic_S2_P4E.1_K4.1_C4.1_H4.1_A4.1_[T5G]_[A6T]_F4.1_[T8C]_[A9G]_T4.1 (ssRNA)
RNA: UUUGAUUAAUAUGAUAUCGUUCUUUCUUGUAGUUCGUUCUUUCUCGAUAUCAUAUUAAUCUUU
B18: Ic_S2_P4E.1_K4.1_C4.1_H4.1_A4.1_[T5G]_[A6T]_F4.1_[A9G]_T4.1 (ssRNA)
RNA: UUUGAUUAAUAUGAUAUCGUUCUUUCUUGUAGUUUGUUCUUUCUCGAUAUCAUAUUAAUCUUU
B19: Ic_S2_P4E.1_K4.1_C4.1_H4.1_A4.1_[T5G]_[A6T]_[T7A]_F4.1_[T8A]_T4.1 (ssRNA)
RNA: UUUGAUUAAUAUGAUAUCGUUCUUUCUUGUAGUAAAUUCUUUCUCGAUAUCAUAUUAAUCUUU
B20: Ic_S2_P4E.1_K4.1_C4.1_H4.1_A4.1_[T5G]_[A6T]_[T7A]_F4.1_[A9T]_T4.1 (ssRNA)
RNA: UUUGAUUAAUAUGAUAUCGUUCUUUCUUGUAGUAUUUUCUUUCUCGAUAUCAUAUUAAUCUUU
B21: Ic_S2_P4E.1_K4.1_C4.1_H4.1_A4.1_[T5C]_[A6G]_[T7C]_F4.1_[T8A]_[A9T]_T4.1 (ssRNA)
RNA: UUUGAUUAAUAUGAUAUCGUUCUUUCUUGUACGCAUUUCUUUCUCGAUAUCAUAUUAAUCUUU
B22: Ic_S2_P4E.1_K4.1_C4.1_H4.1_A4.1_[T5G]_[A6T]_[T7A]_F4.1_[T8A]_[A9T]_T4.1 (ssRNA)
RNA: UUUGAUUAAUAUGAUAUCGUUCUUUCUUGUAGUAAUUUCUUUCUCGAUAUCAUAUUAAUCUUU

The term Kd denotes the equilibrium constant for the complex coming apart. Read a high Kd as a looser complex.

The target in this data set is T1, PUF4 RNA-binding domain. The data set is described as follows: Mg; RNA-MaP; 20 mM Na-HEPES pH 7.4, 30 mM KOAc, 0.75 mM MgCl2, 0.1% Tween-20, 5% glycerol, 0.1 mg/mL BSA, 2 mM DTT; 25 C; 0.0125-409.6 nM protein. To be noted: tags: N-His6-TEV cleaved; C-SNAP kept, Cy3B-labelled; label: tethered on chip by stalled RNA polymerase.
Consider B1, for which binding was characterised by a dissociation constant (Kd) of 984 nM.
With B2 the figure was 109 nM.
In the case of B3 it was 20.2 nM.
For the molecule B4, the Kd is 573 nM.
In the case of B5, the Kd worked out at 501 nM.
B6 displayed a Kd of 162 nM.
In the case of B7 it was 28.3 nM.
In turn, B8 came in with a Kd of 736 nM. Compared with the last molecule, the Kd is about 26-fold higher.
Molecule B9 yielded a Kd of 24.5 nM.
With B10 the figure was 936 nM; with B11, 588 nM.
With B12 the figure was 19.6 nM.
In the case of B13 it was 830 nM.
Molecule B14 displayed a Kd of 407 nM.
With B15 the figure was 81.6 nM.
With B16 the figure was 31.1 nM; with B17, 550 nM; with B18, 95.3 nM.
In the case of B19, binding was put at a Kd of 407 nM. This Kd is about 4.3-fold higher than that of the molecule before.
For the molecule B20, the Kd turned out to be 26.4 nM.
In the case of B21 it was 235 nM.
In the case of B22 it was 342 nM.
